± gives the uncertainty stated by the source.
Assay: self-splicing fitness, log relative to wild type (ln ratio); higher = more splicing; Tetrahymena group I intron in knt gene, E. coli kanamycin selection, DiMSum; sequences stand for … in CUCUCU…GGAGGGAAAAGUUAUCAGGCAUGCACCUGGUAGCUAGUCUUUAAACCAAUAGAUUGCAUCGGUUUAAAAGGCAAGACCGUCAAAUUGCGGGAAAGGGGUCAACAGCCGUUCAGUACCAAGUCUCAGGGGAAACUUUGAGAUGGCCUUGCAAAGGGUAUGGUAAUAAGCUGACGGACAUGGUCCUAACCACGCAGCCAAGUCCUAAGUCAACAGAUCUUCUGUUGAUAUGGAUGCAGUUCACAGACUAAAUGUCGGUCGGGGAAGAUGUAUUCUUCUCAUAAGAUAUAGUCGGACCUCUCCUUAAUGGGAGCUAGCGGAUGAAGUGAUGCAACACUGGAGCCGCUGGGAACUAAUUUGUAUGCGAAAGUAUAUUGAUUAGUUUUGGAGUACUCGUGGUCG
Method in brief: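 A randomised library covering all eight P1ex-region intron nucleotides was built with the intron in the knt kanamycin-resistance gene on pET-22b(+) and held in E. coli BL21(DE3). Cells were grown overnight at 37°C or 30°C on LB agar, with or without 25 μg/mL kanamycin, plus 100 μg/mL carbenicillin, 50 μM IPTG and 0.2% rhamnose, and pooled colonies were amplicon-sequenced on an Illumina HiSeq 2500. DiMSum fitness is the error-weighted combination of wild-type-normalised replicate fold changes, kanamycin versus none.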

Sequence | self-splicing fitness (ln) (30 °C) | self-splicing fitness (ln) (37 °C)
GCGCAGCAAUAUUACGUGAC | -1.83 ± 0.095 | -1.03 ± 0.087
GCUAAGCAAUAUUACGUCCU | -0.847 ± 0.14 | 0.223 ± 0.17
GCACAGCAAUAUUACGCUGU | -3.33 ± 0.14 | -2.23 ± 0.17
CGAGAGCAAUAUUACGCUUG | -3.51 ± 0.33 | -3.14 ± 0.34
GGAUAGCAAUAUUACGUCCG | -0.616 ± 0.17 | -0.972 ± 0.2
GAUAAGCAAUAUUACGAUUG | -2.59 ± 0.11 | -1.82 ± 0.18
GCGCAGCAAUAUUACGCAGG | -3.86 ± 0.31 | -2.09 ± 0.34
CUGAAGCAAUAUUACGGAGU | -3.2 ± 0.37 | -2.33 ± 0.26
GCUCAGCAAUAUUACGUGUG | -1.26 ± 0.063 | -0.824 ± 0.074
AUGUAGCAAUAUUACGUAUC | -4.2 ± 0.42 | -2.58 ± 0.3
CCCAAGCAAUAUUACGAUAA | -3.19 ± 0.14 | -3.49 ± 0.2
UGUUAGCAAUAUUACGUGAG | -1.02 ± 0.051 | -0.331 ± 0.065
GACAAGCAAUAUUACGAUGA | -0.527 ± 0.078 | -0.303 ± 0.085
CUGGAGCAAUAUUACGUCCA | – | -2.26 ± 0.44
GAGCAGCAAUAUUACGUAUA | -3.2 ± 0.27 | -2.97 ± 0.27
ACUAAGCAAUAUUACGUGAA | -1.24 ± 0.074 | -0.939 ± 0.1
GAAAAGCAAUAUUACGAGGG | – | -1.77 ± 0.25
CCUGAGCAAUAUUACGAUGG | -4.46 ± 0.21 | -2.58 ± 0.19
CAAGAGCAAUAUUACGCCAC | -2.38 ± 0.36 | –
GCAAAGCAAUAUUACGUUAC | -2.75 ± 0.19 | -1.3 ± 0.15
CACGAGCAAUAUUACGGUAA | – | -2.37 ± 0.27
CAGCAGCAAUAUUACGUAGA | -2.13 ± 0.071 | -1.57 ± 0.097
AAAGAGCAAUAUUACGCUGC | -3.15 ± 0.14 | -2.84 ± 0.21
CCGAAGCAAUAUUACGAUCU | -3.36 ± 0.34 | -2.85 ± 0.29
AAAGAGCAAUAUUACGGGCG | -2.3 ± 0.14 | -3.1 ± 0.47

Sequence | self-splicing fitness (ln) (30 °C) | self-splicing fitness (ln) (37 °C)
AUUGAGCAAUAUUACGAGUC | -4.1 ± 0.34 | -2.38 ± 0.35
UGGCAGCAAUAUUACGCAGC | – | -2.2 ± 0.39
UAAAAGCAAUAUUACGUUGC | -3.72 ± 0.27 | -3.17 ± 0.4
UAGUAGCAAUAUUACGAUGC | -4.61 ± 0.34 | -2.56 ± 0.2
UCUCAGCAAUAUUACGGGAC | -2.31 ± 0.24 | -2.87 ± 0.38
UUGUAGCAAUAUUACGCGUC | -3.51 ± 0.42 | -0.917 ± 0.26
CAACAGCAAUAUUACGGGGC | -3.71 ± 0.16 | -3.4 ± 0.17
ACAUAGCAAUAUUACGUGCG | -1.05 ± 0.064 | -0.527 ± 0.081
ACCUAGCAAUAUUACGACAU | -0.784 ± 0.011 | -0.119 ± 0.032
AUGCAGCAAUAUUACGCGGC | -3.79 ± 0.47 | –
AAACAGCAAUAUUACGGUUC | -2.65 ± 0.078 | -2.6 ± 0.12
GUCUAGCAAUAUUACGAUUG | – | -2.14 ± 0.26
GGGUAGCAAUAUUACGACUG | 0.0705 ± 0.13 | 0.222 ± 0.18
UACGAGCAAUAUUACGAAUG | -2.56 ± 0.12 | -1.68 ± 0.15
AUCUAGCAAUAUUACGAAUC | -4.05 ± 0.36 | -3.15 ± 0.27
GAAAAGCAAUAUUACGGUUU | -0.79 ± 0.057 | -0.332 ± 0.076
ACAAAGCAAUAUUACGCGGC | -2.91 ± 0.13 | -3.04 ± 0.21
UGUUAGCAAUAUUACGCAUG | -1.38 ± 0.084 | -0.483 ± 0.089
CUGUAGCAAUAUUACGCCGG | -2.3 ± 0.2 | -0.642 ± 0.19
UUAGAGCAAUAUUACGAUCU | -2.45 ± 0.24 | -3.11 ± 0.3
CUAUAGCAAUAUUACGAUGG | -3.44 ± 0.24 | -1.18 ± 0.14
GACGAGCAAUAUUACGGUGC | -2.72 ± 0.28 | -1.47 ± 0.25
UGAUAGCAAUAUUACGGGGA | -3.16 ± 0.39 | -1.8 ± 0.26
CAUAAGCAAUAUUACGAAUU | -3.44 ± 0.27 | -1.52 ± 0.22
GGUUAGCAAUAUUACGCGGA | -1.4 ± 0.31 | -1.34 ± 0.23

Sequence | self-splicing fitness (ln) (30 °C) | self-splicing fitness (ln) (37 °C)
CCGCAGCAAUAUUACGGGUU | -3.79 ± 0.11 | -2.74 ± 0.11
UAGAAGCAAUAUUACGCAAA | -1.24 ± 0.22 | -1.03 ± 0.31
UUUGAGCAAUAUUACGAUAG | -2.09 ± 0.19 | -1.87 ± 0.23
UCACAGCAAUAUUACGGAGC | -2.68 ± 0.15 | -2.04 ± 0.22
GUUAAGCAAUAUUACGUGGC | – | -2.1 ± 0.33
UUAAAGCAAUAUUACGCCUU | -1.96 ± 0.18 | -1.28 ± 0.19
UUUAAGCAAUAUUACGGACU | -1.59 ± 0.14 | -0.921 ± 0.13
CAAUAGCAAUAUUACGUCAG | -1.95 ± 0.066 | -1.12 ± 0.07
AAAGAGCAAUAUUACGACGA | -2.27 ± 0.23 | -2.57 ± 0.25
AAUCAGCAAUAUUACGUACG | -0.91 ± 0.056 | -0.149 ± 0.075
UGUGAGCAAUAUUACGUGUU | -3.8 ± 0.25 | -2.59 ± 0.25
UAGUAGCAAUAUUACGGCAG | -1.01 ± 0.11 | -1.57 ± 0.14
UACGAGCAAUAUUACGCUAU | -2.4 ± 0.14 | -3.49 ± 0.29
AAUUAGCAAUAUUACGUGGU | -4.47 ± 0.26 | -2.18 ± 0.14
GAGCAGCAAUAUUACGCAGU | -3.57 ± 0.2 | -1.4 ± 0.17
GCGUAGCAAUAUUACGCCUU | -3.7 ± 0.33 | -1.3 ± 0.21
UUGCAGCAAUAUUACGGUAG | -0.823 ± 0.057 | -0.064 ± 0.07
AAUGAGCAAUAUUACGAUGC | -2.44 ± 0.21 | –
GGUGAGCAAUAUUACGAAUC | – | -2.04 ± 0.4
UUGAAGCAAUAUUACGCUAG | -0.524 ± 0.19 | -0.328 ± 0.17
UGUCAGCAAUAUUACGGAUG | -2.07 ± 0.088 | -0.996 ± 0.1
CGAUAGCAAUAUUACGUCGG | -1.16 ± 0.11 | -0.171 ± 0.11
GAACAGCAAUAUUACGGCUA | -0.474 ± 0.077 | -0.117 ± 0.084
AUUCAGCAAUAUUACGCCCA | -1.11 ± 0.18 | -0.0785 ± 0.23
CUCAAGCAAUAUUACGACAU | -3.206 ± 0.018 | -1.9 ± 0.034

Sequence | self-splicing fitness (ln) (30 °C) | self-splicing fitness (ln) (37 °C)
UCCCAGCAAUAUUACGGUGU | -0.353 ± 0.043 | 0.504 ± 0.055
AUAGAGCAAUAUUACGAUUU | -0.251 ± 0.081 | 0.0148 ± 0.1
UCGAAGCAAUAUUACGGGUA | -0.839 ± 0.062 | -0.123 ± 0.068
GAUCAGCAAUAUUACGCUUC | -3.16 ± 0.22 | -2.25 ± 0.43
GAGGAGCAAUAUUACGCAUG | -3.19 ± 0.48 | -2.65 ± 0.3
GUUCAGCAAUAUUACGGGCC | -3.61 ± 0.2 | -2.25 ± 0.2
AAAAAGCAAUAUUACGCGAG | -0.943 ± 0.085 | -1.06 ± 0.11
ACAUAGCAAUAUUACGUGUG | -2.41 ± 0.065 | -1.58 ± 0.069
UGGAAGCAAUAUUACGCCCA | – | -0.992 ± 0.45
CGAUAGCAAUAUUACGAAUA | -0.837 ± 0.46 | -1.47 ± 0.46
CUAAAGCAAUAUUACGGGCC | -2.8 ± 0.23 | -1.28 ± 0.2
UUACAGCAAUAUUACGCCGG | -0.726 ± 0.094 | -0.416 ± 0.13
GACAAGCAAUAUUACGAAAC | -2.29 ± 0.18 | -2.5 ± 0.17
GCGCAGCAAUAUUACGUUAU | -0.78 ± 0.048 | -0.0311 ± 0.064
UCCUAGCAAUAUUACGUAGG | -3.58 ± 0.19 | -2.21 ± 0.26
CCUAAGCAAUAUUACGAACA | -3.01 ± 0.29 | -1.96 ± 0.32
CGCCAGCAAUAUUACGAUUA | -2.37 ± 0.15 | -2.68 ± 0.21
AAUAAGCAAUAUUACGUUCG | -1.5 ± 0.08 | -0.605 ± 0.095
GUAAAGCAAUAUUACGUGUG | -1.34 ± 0.063 | -1 ± 0.088
UAAUAGCAAUAUUACGACUU | -0.84 ± 0.1 | -0.376 ± 0.094
CGACAGCAAUAUUACGUGAG | -0.627 ± 0.052 | -0.333 ± 0.074
AGGUAGCAAUAUUACGGAAG | -3.612 ± 0.031 | -2.5 ± 0.04
CCACAGCAAUAUUACGUCAC | -3.34 ± 0.15 | -2.86 ± 0.22

Source: the supplement of paper PMC7877785
